Results reported in article PMC6980832, “Crystal structures of Triosephosphate Isomerases from Taenia solium and Schistosoma mansoni provide insights for vaccine rationale and drug design against helminth parasites” (PLoS Neglected Tropical Diseases, 2020).

What was measured:
purified protein [1] = substrate: O=CC(O)COP(=O)(O)O; assay: purified protein; format: biochemical, Taenia solium; details: 0.1 M TEA-HCl pH 7.4, 10 mM EDTA, 0.2 mM NADH, 21 °C, G3P 0 to 5 mM, G3P to DHAP direction
purified protein [2] = substrate: O=CC(O)COP(=O)(O)O; assay: purified protein; format: biochemical, Schistosoma mansoni; details: 0.1 M TEA-HCl pH 7.4, 10 mM EDTA, 0.2 mM NADH, 21 °C, G3P 0 to 5 mM, G3P to DHAP direction

B1: TsTPI (Taenia solium) (protein)
chain: MTRKLFVGGNWKMNGSYSHINTFFDTLQKADTDPNADIVIGVPACYLKYAQDKAPKGIKIAAENCYKVGSGAFTGEISTEMIKDCGCEWVILGHSERRHIFGESNELIGEKVKHALDSGLNVIPCIGELLSEREAGKTNDVCFAQMDAIAKNVPSKEAWDKVVIAYEPVWAIGTGKTATPAQAQEVHKVVRDWIRKHVDAGIADKVRILYGGSVTASNAKDLGTQPDVDGFLVGGASLKPDFITIINARR
notes: full length, codon-optimised synthetic gene, E. coli tpi-null strain, modified pET19; extra Gly-Pro-His before Met1; homodimer
B1 showed a Km (purified protein [1]) of 310 ± 30 µM, a kcat (purified protein [1]) of 993 ± 44 s⁻¹ and a kcat/Km (purified protein [1]) of 3.15e+06 M⁻¹ s⁻¹.

B2: SmTPI (Schistosoma mansoni) (protein)
chain: MSGSRKFFVGGNWKMNGSRDDNDKLLKLLSEAHFDDNTEVLIAPPSVFLHEIRKSLKKEIHVAAQNCYKVSKGAFTGEISPAMIRDIGCDWVILGHSERRNIFGESDELIAEKVQHALAEGLSVIACIGETLSERESNKTEEVCVRQLKAIANKIKSADEWKRVVVAYEPVWAIGTGKVATPQQAQEVHNFLRKWFKTNAPNGVDEKIRIIYGGSVTAANCKELAQQHDVDGFLVGGASLKPEFTEICKARQR
notes: full length, codon-optimised synthetic gene, E. coli tpi-null strain, modified pET19; extra Gly-Pro-His before Met1; homodimer about 50 kDa
For B2, the Km (purified protein [2]) was 480 ± 70 µM, the kcat (purified protein [2]) was 2870 ± 138 s⁻¹ and the kcat/Km (purified protein [2]) was 5.8e+06 M⁻¹ s⁻¹.
